Source: article doi:10.1101/869909

Target: HSP27 ACD domain (α-crystallin domain), monomeric (human)
Experiment: ITC

Chain of HSP27 ACD domain (α-crystallin domain), monomeric (human) (P04792 76-184): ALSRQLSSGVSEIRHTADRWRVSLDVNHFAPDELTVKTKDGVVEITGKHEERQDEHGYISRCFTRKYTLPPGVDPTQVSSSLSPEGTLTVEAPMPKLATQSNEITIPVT

B1: HSP27 IXI peptide 178-…-186 (F185H), without biotin (peptide)
peptide: EITIPVTHE
With B1 the Kd was 14.3 µM.
